In patent publication US20040002439A1 (ORTHO MCNEIL PHARMACEUTICAL, published 2004):

Target: Nav1.2 (a type II alpha subunit)
Assay: cell-based or functional assay

ionic current conducted by Nav1.2 in Xenopus oocytes (cut-open oocyte voltage clamp): ~3 fold
B1: human voltage gated sodium channel β1A subunit (other)
chain: ACGGCVEVDSETEAVYGMTFKILCISCKRRSETNAETFTEWTFRQKGTEEFVKILRYENEVLQLEEDERFEGRVVWNGSRGTKDLQDLSIFITNVTYNHSGDYECHVYRLLFFENYEHNTSVVKKIHIEVVDKGESGAACPFTVTHRRARWRDRWQAVDRTGWLCAWPANRPQQRAEGEGSSPSCPLQLWPLFLSSPRRGQSMPVPHRRSGYRTQLCHLCCMTSGRCLLSLSQRVVLGLPGIIIRCVSRGVV
